These results are taken from patent US20030068675, “Position dependent recognition of GNN nucleotide triplets by zinc fingers” (published 2003).

What all share (test): EMSA
Holding throughout (conditions): tags: MBP fusion

One data set has as its target T1, ZFP SBS#1494 (synthetic).
T1 chain: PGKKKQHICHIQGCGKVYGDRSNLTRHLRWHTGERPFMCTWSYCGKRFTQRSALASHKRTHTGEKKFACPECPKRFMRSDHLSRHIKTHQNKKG
In outline: (§1)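 Purified ZFP was titrated against labeled double-stranded target (1 nM or lower, at least 10-fold below expected Kd) carrying the natural binding site with flanks. Binding buffer was 10 mM Tris pH 7.5, 100 mM KCl, 1 mM MgCl2, 0.1 mM ZnCl2, 5 mM DTT, 10% glycerol, 0.02% BSA, with equilibration for at least 45 min. Bound and free target were separated on a 10% polyacrylamide gel.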

Another data set concerns the target T2, ZFP SBS#1486 (synthetic).
T2 chain: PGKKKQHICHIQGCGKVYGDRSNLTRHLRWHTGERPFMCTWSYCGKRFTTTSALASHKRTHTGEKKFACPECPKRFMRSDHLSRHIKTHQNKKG
Put shortly:
as §1

A further data set deals with T3, ZFP SBS#1498 (synthetic).
T3 chain: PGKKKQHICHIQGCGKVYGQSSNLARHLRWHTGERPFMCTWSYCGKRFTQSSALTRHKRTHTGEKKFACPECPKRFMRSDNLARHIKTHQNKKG
Put shortly:
as §1

The target of another data set is T4, ZFP SBS#1499 (synthetic).
T4 chain: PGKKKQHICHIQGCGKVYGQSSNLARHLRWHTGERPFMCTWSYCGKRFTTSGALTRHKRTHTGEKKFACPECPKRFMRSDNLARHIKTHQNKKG
In outline: as §1

In a further data set the target is T5, ZFP SBS#560 (synthetic).
T5 chain: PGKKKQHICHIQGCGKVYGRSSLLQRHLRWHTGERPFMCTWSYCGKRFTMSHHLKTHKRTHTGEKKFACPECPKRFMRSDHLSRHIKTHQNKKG
In outline:
as §1

For a further data set, the target named is T6, ZFP SBS#550 (synthetic).
T6 chain: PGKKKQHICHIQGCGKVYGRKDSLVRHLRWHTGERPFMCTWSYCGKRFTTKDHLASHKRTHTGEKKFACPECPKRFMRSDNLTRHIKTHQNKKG
In outline: as §1

For another data set, the target named is T7, ZFP SBS#548 (synthetic).
T7 chain: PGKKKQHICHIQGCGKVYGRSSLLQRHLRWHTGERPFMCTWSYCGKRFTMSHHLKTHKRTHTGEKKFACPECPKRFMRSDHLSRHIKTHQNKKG
Put shortly:
as §1

A further data set addresses T8, ZFP SBS#549 (synthetic).
T8 chain: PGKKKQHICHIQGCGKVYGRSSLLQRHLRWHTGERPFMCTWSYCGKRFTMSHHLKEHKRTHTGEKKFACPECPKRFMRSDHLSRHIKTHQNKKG
In outline:
as §1

The target in a further data set is T9, ZFP SBS#544 (synthetic).
T9 chain: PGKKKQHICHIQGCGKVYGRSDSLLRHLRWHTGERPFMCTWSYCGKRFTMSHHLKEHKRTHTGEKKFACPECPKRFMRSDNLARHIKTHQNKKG
In outline:
as §1

A further data set concerns the target T10, ZFP SBS#554 (synthetic).
T10 chain: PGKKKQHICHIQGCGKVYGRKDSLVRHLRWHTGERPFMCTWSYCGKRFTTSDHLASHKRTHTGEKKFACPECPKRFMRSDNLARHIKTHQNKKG
Put shortly:
as §1

Another data set addresses T11, ZFP SBS#545 (synthetic).
T11 chain: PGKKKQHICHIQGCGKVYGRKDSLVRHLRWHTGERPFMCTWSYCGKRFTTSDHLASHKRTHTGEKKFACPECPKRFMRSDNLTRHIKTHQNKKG
In outline: as §1

A further data set has as its target ZFP SBS#546 (synthetic). Put shortly: as §1
Another data set has as its target T12, ZFP SBS#553 (synthetic).
T12 chain: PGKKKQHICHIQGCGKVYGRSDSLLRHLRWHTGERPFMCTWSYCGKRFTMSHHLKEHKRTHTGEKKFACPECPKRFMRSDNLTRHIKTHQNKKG
Put shortly:
as §1

The target of the next data set is ZFP SBS#543 (synthetic). In outline:
as §1

A further data set deals with ZFP SBS#551 (synthetic). In outline: as §1
A further data set has as its target T13, ZFP SBS#552 (synthetic).
T13 chain: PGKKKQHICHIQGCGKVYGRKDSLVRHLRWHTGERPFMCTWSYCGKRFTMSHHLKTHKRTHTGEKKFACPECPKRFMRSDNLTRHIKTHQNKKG
Put shortly:
as §1

Another data set deals with T14, ZFP SBS#547 (synthetic).
T14 chain: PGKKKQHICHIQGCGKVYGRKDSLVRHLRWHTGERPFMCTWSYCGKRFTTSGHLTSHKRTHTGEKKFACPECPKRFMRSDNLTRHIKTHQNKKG
Put shortly:
as §1

For the next data set, the target named is ZFP SBS#1500 (synthetic). Put shortly: as §1
For the next data set, the target named is ZFP SBS#1457 (synthetic). Put shortly:
as §1

The target of another data set is ZFP SBS#1488 (synthetic). Put shortly: as §1
ZFP SBS#1488 (synthetic), sequence (chain, as listed by the source): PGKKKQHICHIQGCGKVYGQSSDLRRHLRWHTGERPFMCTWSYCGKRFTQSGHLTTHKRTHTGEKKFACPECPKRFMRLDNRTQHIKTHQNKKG
The target of the next data set is ZFP SBS#1493 (synthetic). Put shortly: as §1
The target in the next data set is T15, ZFP SBS#1492 (synthetic).
T15 chain: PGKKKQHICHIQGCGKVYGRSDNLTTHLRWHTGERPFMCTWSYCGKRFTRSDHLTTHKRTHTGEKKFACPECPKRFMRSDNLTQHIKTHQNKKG
In outline:
as §1

The target in the next data set is ZFP SBS#1522 (synthetic). Put shortly: as §1
ZFP SBS#1522 (synthetic), sequence (chain, as listed by the source): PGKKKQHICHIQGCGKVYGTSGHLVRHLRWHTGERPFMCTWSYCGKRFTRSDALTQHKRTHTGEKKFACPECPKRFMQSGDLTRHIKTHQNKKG
A further data set has as its target ZFP SBS#1497 (synthetic). In outline: as §1
The next data set addresses ZFP SBS#1496 (synthetic). In outline:
as §1

The target of another data set is T16, ZFP SBS#1460 (synthetic).
T16 chain: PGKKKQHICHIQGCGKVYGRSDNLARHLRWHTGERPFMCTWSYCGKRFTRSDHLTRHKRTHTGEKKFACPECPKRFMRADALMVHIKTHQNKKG
In outline: as §1

ZFP SBS#1457 (synthetic), sequence (chain, as listed by the source): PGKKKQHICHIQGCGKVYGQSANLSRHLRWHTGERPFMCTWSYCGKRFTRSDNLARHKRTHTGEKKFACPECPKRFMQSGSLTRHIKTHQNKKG
ZFP SBS#546 (synthetic), sequence (chain, as listed by the source): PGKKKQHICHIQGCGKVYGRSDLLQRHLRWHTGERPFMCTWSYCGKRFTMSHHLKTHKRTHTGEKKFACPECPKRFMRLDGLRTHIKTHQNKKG
ZFP SBS#1496 (synthetic), sequence (chain, as listed by the source): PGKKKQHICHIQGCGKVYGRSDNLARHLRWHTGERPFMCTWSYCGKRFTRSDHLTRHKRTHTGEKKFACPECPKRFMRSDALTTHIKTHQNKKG

B1: GGGTTTGAC (dsDNA)
DNA 1: GGGTTTGAC
DNA 2: GTCAAACCC
For the molecule B1, the equilibrium dissociation constant (Kd) (as a rule, a measure of binding affinity in units of concentration) with ZFP SBS#1494 amounted to 0.255 nM; in the data set with ZFP SBS#1486 it was 0.085 nM.

B2: GAGGTTGAT (dsDNA)
DNA 1: GAGGTTGAT
DNA 2: ATCAACCTC
On to B2, for which the Kd with ZFP SBS#1498 came out at 0.101 nM; with ZFP SBS#1499, 0.02 nM.

B3: GAGTGTGTGA (dsDNA)
DNA 1: GAGTGTGTGA
DNA 2: TCACACACTC
As for B3, the Kd turned out to be 500 nM with ZFP SBS#560; 20 nM in the data set with ZFP SBS#550; 500 nM with ZFP SBS#548; 500 nM with ZFP SBS#549; 125 nM in the data set with ZFP SBS#544; 62.5 nM in the data set with ZFP SBS#554. Also, the Kd with ZFP SBS#545 was 32 nM; with ZFP SBS#546 it was 500 nM; with ZFP SBS#553 it was 125 nM; with ZFP SBS#543 it was 50 nM; in the data set with ZFP SBS#551, 50 nM; with ZFP SBS#552, 31 nM. The molecule also returned a Kd in the data set with ZFP SBS#547 of 500 nM.

B4: GCAGAGGAA (dsDNA)
DNA 1: GCAGAGGAA
DNA 2: TTCCTCTGC
For the molecule B4, the Kd amounted to 0.003 nM with ZFP SBS#1500 and 0.014 nM with ZFP SBS#1457.

B5: AAGTGGTAG (dsDNA)
DNA 1: AAGTGGTAG
DNA 2: CTACCACTT
Regarding B5, the values for the Kd in the data set with ZFP SBS#1488, in the data set with ZFP SBS#1493 and with ZFP SBS#1492 were 5.64 nM, 15.1 nM and 1.37 nM, respectively.

B6: GCAATGGGT (dsDNA)
DNA 1: GCAATGGGT
DNA 2: ACCCATTGC
For the molecule B6, the Kd with ZFP SBS#1522 was 0.08 nM.

B7: GAGGCTCTT (dsDNA)
DNA 1: GAGGCTCTT
DNA 2: AAGAGCCTC
In turn, B7 gave a Kd with ZFP SBS#1497 of 0.007 nM.

B8: TTGGGGGAG (dsDNA)
DNA 1: TTGGGGGAG
DNA 2: CTCCCCCAA
Take B8: the Kd in the data set with ZFP SBS#1496 was 0.065 nM; in the data set with ZFP SBS#1460 it was 0.007 nM.
